{"source": "patent US20180119166", "target": "T1, MBP fusion protein of the carboxyl-terminal domain of Gle1 (MBP-Gle1C; amino acid residues 244-611)", "T1 chain": "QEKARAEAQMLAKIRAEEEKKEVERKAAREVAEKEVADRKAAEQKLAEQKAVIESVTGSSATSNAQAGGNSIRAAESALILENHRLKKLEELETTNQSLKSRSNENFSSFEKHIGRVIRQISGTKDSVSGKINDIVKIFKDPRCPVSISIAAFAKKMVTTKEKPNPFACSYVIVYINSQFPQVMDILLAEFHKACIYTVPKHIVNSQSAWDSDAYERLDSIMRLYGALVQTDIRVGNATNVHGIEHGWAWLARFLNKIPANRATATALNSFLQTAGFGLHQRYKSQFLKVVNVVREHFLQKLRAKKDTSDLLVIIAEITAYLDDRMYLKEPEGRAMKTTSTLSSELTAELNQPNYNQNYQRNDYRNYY"}
{"protein": "6x-histidine-fused LOS4 (LOS4-His) (protein) MADTVEKVPTVVESSSSSTVEASNSAEKTEPTTEKKKWGDVEDDDDEEEAVSELNSLSIKEEEKPDSILEEPEDSNIKAVTSGDTPYTSASRFEDLNLSPELMKGLYVEMKFEKPSKIQAISLPMIMTPPHKHLIAQAHNGSGKTTCFVLGMLSRVDPTLREPQALCICPTRELANQNMEVLQKMGKFTGITAELAVPDSTRGAPAATRGAPVSAHVVIGTPGTLKKWMAFKRLGLNHLKILVFDEADHMLATDGFRDDSLKIMKDIGRVNPNFQVLLFSATFNETVKDFVARTVKDPNQLFVKREDLALDSVKQYKVVCPKEQNKIEVIKDQIMELGDIGQTIIFVKTKASAQKVHKALAEMGYDVTSVHGNLTESDRDKIVKEFKECLTQVLIATDVIARGFDQQRVNLVVNYNLPTKYETGEPDYEVYLHRVGRAGRFGRKGAVFNLLLDDGWDKEVMEKIEKYFEANVKEIKSWNSEEEYKSALKEAGLLDEHHHHHH", "values": [{"measurement": "apparent kcat of LOS4-His with MBP-Gle1C (2 µM MBP-Gle1C, 1 µM LOS4-His)", "value": "the apparent kcat values for LOS4-His alone and LOS4-His with MBP-Gle1C were calculated to be 0.267 and 0.565 sec^-1, respectively"}, {"measurement": "fold increase in the overall catalytic rate of LOS4 (kcat against LOS4-His alone, 0.267 sec^-1)", "value": "an approximately two-fold increase in the overall catalytic rate of LOS4 by Gle1"}]}
